The target of data set [1] is major royal jelly protein 3 (MRJP-3) (Apis mellifera) (UniProt Q17060). Nature of the data set: MST; increasing unlabelled MRJP-3 added to fluorescently labelled MRJP-3 monomer; Monolith NT.115, 25 °C, RJ buffer with 0.01% Tween 20; apparent Kd of self-association; signal stable from approximately 40 uM added MRJP-3.
Data set [2] has the same target. The data set can be described thus: SEC; MRJP-3 concentrated to 100 uM, 16/100 Superdex 200, eluted at 0.5 ml/min in RJ buffer (pH 4.0), no RNA; column calibrated with mass standards; monomer to higher-order oligomer.
The target in data set [3] is T1, MRJP-3 (jelly-purified) (Apis mellifera, UniProt Q17060 21-544).
T1 sequence: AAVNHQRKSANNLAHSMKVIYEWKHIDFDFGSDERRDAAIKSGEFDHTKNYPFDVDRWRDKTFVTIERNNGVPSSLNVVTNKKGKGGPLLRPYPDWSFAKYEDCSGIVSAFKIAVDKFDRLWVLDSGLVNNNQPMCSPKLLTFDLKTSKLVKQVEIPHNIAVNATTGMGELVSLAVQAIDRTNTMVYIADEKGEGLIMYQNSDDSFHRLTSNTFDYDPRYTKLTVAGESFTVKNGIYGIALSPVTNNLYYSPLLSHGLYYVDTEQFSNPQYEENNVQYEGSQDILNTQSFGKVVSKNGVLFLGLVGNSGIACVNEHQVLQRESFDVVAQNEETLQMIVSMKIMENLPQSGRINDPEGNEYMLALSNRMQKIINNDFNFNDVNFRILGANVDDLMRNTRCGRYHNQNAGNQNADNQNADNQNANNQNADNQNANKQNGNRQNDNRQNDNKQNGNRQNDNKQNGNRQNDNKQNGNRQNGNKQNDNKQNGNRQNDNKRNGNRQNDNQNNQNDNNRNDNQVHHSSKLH
Nature of the data set: EMSA; 42.8 uM protein; MST: RJ buffer (composition not in material) + 0.01% Tween 20, 25 C; EMSA: room temperature 0.5-3 h, 0.8% agarose, 1xTAE. Particulars: protein: native. On the technique in general: In EMSA bound probe runs differently from free probe, usually more slowly.

Data set [4] has as its target T1, MRJP-3 (jelly-purified). Nature of the data set: MST; first of three binding phases; MST: RJ buffer (composition not in material) + 0.01% Tween 20, 25 C; EMSA: room temperature 0.5-3 h, 0.8% agarose, 1xTAE. Particulars: protein: native; label: Alexa Fluor 488 (Ulysis) for MST.
For data set [5], the target named is T1, MRJP-3 (jelly-purified). Nature of the data set: MST; third of three binding phases; MST: RJ buffer (composition not in material) + 0.01% Tween 20, 25 C; EMSA: room temperature 0.5-3 h, 0.8% agarose, 1xTAE. Particulars: protein: native; label: Alexa Fluor 488 (Ulysis) for MST.
In data set [6] the target is T1, MRJP-3 (jelly-purified). Nature of the data set: MST; second of three binding phases; MST: RJ buffer (composition not in material) + 0.01% Tween 20, 25 C; EMSA: room temperature 0.5-3 h, 0.8% agarose, 1xTAE. Particulars: protein: native; label: Alexa Fluor 488 (Ulysis) for MST.
Data set [7] has as its target T1, MRJP-3 (jelly-purified). The data set can be described thus: EMSA; 42.8 uM protein, 0.27 uM RNA; MST: RJ buffer (composition not in material) + 0.01% Tween 20, 25 C; EMSA: room temperature 0.5-3 h, 0.8% agarose, 1xTAE. Particulars: protein: native.

With “major royal jelly protein 3 (MRJP-3) (from UniProt Q17060 21-544) (natural protein)”, in data set [1], the Kd was 3500 nM. For the same molecule, the stoichiometry N (monomer units) in data set [2] worked out at 20.

On to UGUGUUUAUAGCGGAUUU (ssRNA) [18 nt ssRNA], for which the binding result with MRJP-3 (jelly-purified) [3] is given as “binds”.

With UCAUAUGGGCUCACUGUUACUA (ssRNA) [22 nt ssRNA], the Kd with MRJP-3 (jelly-purified) [4] amounted to 4 nM; in the data set with MRJP-3 (jelly-purified) [5] it was 25000 nM; with MRJP-3 (jelly-purified) [6], 300 nM.

For ACGCUUCUAACUUCAAGAUUUUACACAAUCAUAUGGGCUCACUGUUACUA (ssRNA) [50 nt ssRNA], the binding result with MRJP-3 (jelly-purified) [7] was “binds”.
